One molecule from paper PMC3048587 (Biochemistry, 2011) can be followed below.

This test has as its target Rac W56F mutant (UniProt P63000 1-192, W56F). In words: cell-based or functional assay.

B1: Dock180^DHR-2c (C-terminus of DHR-2 in Dock180, residues 1335-1657) (domain or fragment)
chain: KPDYFAVGYYGQGFPTFLRGKVFIYRGKEYERREDFEARLLTQFPNAEKMKTTSPPGDDIKNSPGQYIQCFTVKPKLDLPPKFHRPVSEQIVSFYRVNEVQRFEYSRPIRKGEKNPDNEFANMWIERTIYTTAYKLPGILRWFEVKSVFMVEISPLENAIETMQLTNDKINSMVQQHLDDPSLPINPLSMLLNGIVDPAVMGGFANYEKAFFTDRYLQEHPEAHEKIEKLKDLIAWQIPFLAEGIRIHGDKVTEALRPFHERMEACFKQLKEKVEKEYGVRIMPSSLDDRRGSRPRSMVRSFTMPSSSRPLSVASVSSLSSDS
As for B1, the “Mant-GDP nucleotide exchange (GEF activity of DHR-2c), relative to wild-type Rac” value was < 10 % of the level of wild-type Rac.
